According to PMC9478642 (2022):

B1: human T-plastin, full length, wild type [human] / F-actin (filaments of α-actin) [not stated] (parent complex)
chain 1: MDEMATTQISKDELDELKEAFAKVDLNSNGFICDYELHELFKEANMPLPGYKVREIIQKLMLDGDRNKDGKISFDEFVYIFQEVKSSDIAKTFRKAINRKEGICALGGTSELSSEGTQHSYSEEEKYAFVNWINKALENDPDCRHVIPMNPNTDDLFKAVGDGIVLCKMINLSVPDTIDERAINKKKLTPFIIQENLNLALNSASAIGCHVVNIGAEDLRAGKPHLVLGLLWQIIKIGLFADIELSRNEALAALLRDGETLEELMKLSPEELLLRWANFHLENSGWQKINNFSADIKDSKAYFHLLNQIAPKGQKEGEPRIDINMSGFNETDDLKRAESMLQQADKLGCRQFVTPADVVSGNPKLNLAFVANLFNKYPALTKPENQDIDWTLLEGETREERTFRNWMNSLGVNPHVNHLYADLQDALVILQLYERIKVPVDWSKVNKPPYPKLGANMKKLENCNYAVELGKHPAKFSLVGIGGQDLNDGNQTLTLALVWQLMRRYTLNVLEDLGDGQKANDDIIVNWVNRTLSEAGKSTSIQSFKDKTISSSLAVVDLIDAIQPGCINYDLVKSGNLTEDDKHNNAKYAVSMARRIGARVYALPEDLVEVKPKMVMTVFACLMGRGMKRV
chain 2: not shown

Variants of: B1
Test: sequential low-speed/high-speed F-actin cosedimentation assay; 5 μM actin, 2 μM plastin; read off a plot

| Variant | response |
| --- | --- |
| chain 1 R594A | ~0.77 proportion of T-plastin in low-speed pellet |
| chain 1 W390A | ~0.37 proportion of T-plastin in low-speed pellet |
